From paper PMC3030345 (The Journal of Biological Chemistry, 2010)

Target: the molecule itself
Assay: atomic force microscopy

B1: A3G-H248A/H250A-Myc-His (enzyme, human, UniProt Q9HC16 1-384, looked up)
chain: MKPHFRNTVERMYRDTFSYNFYNRPILSRRNTVWLCYEVKTKGPSRPPLDAKIFRGQVYSELKYHPEMRFFHWFSKWRKLHRDQEYEVTWYISWSPCTKCTRDMATFLAEDPKVTLTIFVARLYYFWDPDYQEALRSLCQKRDGPRATMKIMNYDEFQHCWSKFVYSQRELFEPWNNLPKYYILLHIMLGEILRHSMDPPTFTFNFNNEPWVRGRHETYLCYEVERMHNDTWVLLNQRRGFLCNQAPAKAGFLEGRHAELCFLDVIPFWKLDLDQDYRVTCFTSWSPCFSCAQEMAKFISKNKHVSLCIFTARIYDDQGRCQEGLRTLAEAGAKISIMTYSEFKHCWDTFVDHQGCPFQPWDGLDEHSQDLSGRLRAILQNQEN
With B1 the “stoichiometry N” value was 2.
